# Ends that are not written are not given here.
# B1: phage clone 27 displaying the peptide KTLLPTP (SEQ ID NO:1) (peptide)
# peptide: KTLLPTP
# modifications: also: displayed on M13 phage coat protein, phage labelled with FITC or biotin
# notes: Tested as whole labelled phage, not as free peptide; also called FITC-27; PDAC-27; not shown: M13 phage coat protein carrying the 7-mer of the phD7 library (New England Biolabs)
# Key:
# [1] = target: human plectin-1 (of human PDAC cell lines) (human, UniProt Q15149 1-4684); experiment: flow cytometry, FITC-labelled phage on PDAC cell lines, average over lines, reference is the FITC-labelled unrelated phage clone
# Description: (§1) Mouse Pancreatic ductal adenocarcinoma (PDAC) cells, human PDAC cells (i.e. MNA, 8988, SW1990, PaCa-2, ASPC), normal human ductal cells and normal pancreatic cells were incubated with 1 mM (FITC) FITC-labeled phage clone 27 or unrelated phage clone (amino acid sequence SNLHPSD, negative control (SEQ ID NO:XX)) for 1 hour at 37° C., washed 3× with DPBS and visualized by fluorescent microscopy (Nikon Eclipse TE2000-S, Insight QE, 40× objective). The cells were then harvested by incubation with trypsin, centrifuged, and analyzed (10,000 cells/sample) by flow cytometry on a Beckton Dickinson FACSCalibur (San Jose, Calif.). […] Mean fluorescence was plotted against cell number to show relative uptake between cell types.
# The specificity of Clone 27 for human PDAC cells was evaluated as described in this example. Clone 27 and an unrelated phage clone were labeled with FITC, producing FITC-27 and a FITC-unrelated phage clone (negative control). Mouse PDAC cells as a positive control along with five human PDAC cell lines and with normal human ductal cells were incubated with each type of clone and then uptake of the clone was analyzed via fluorescence-activated cell sorter (FACS).
# [2] = target: T1, plectin-1 (mouse, of mouse PDAC cells) (mouse, UniProt Q9QXS1 1-4691); experiment: flow cytometry, fluorescein-labelled phage on mouse PDAC cells against normal ductal cells
# T1 construct: whole, on cells; On intact cells in the pulldown (photo-crosslink) and in flow cytometry; From cell lysate on a blot in the far western and the western; also called 500 kDa band
# Description: as §1
# Validation of Clone 27 as a PDAC marker (FIG. 1B) was done in experiments described herein, in addition to testing clones 1 (SGVEFLH, SEQ ID NO:4), 9 (SKKDTHH, SEQ ID NO:5), 15 (TMAPSIK, SEQ ID NO:6), 17 (TQHQVTA, SEQ ID NO:7), and 22 (VNDRNVK, SEQ ID NO:8). The phage coat proteins were fluorescein labeled then the extent of phage clone binding and specificity quantified for mouse PDAC and normal ductal cells via flow cytometry (FIG. 1B). […] Phage clone 15 was second in affinity with the remainder having nearly identical specificity.
# human plectin-1 (of human PDAC cell lines), sequence (Q15149 whole entry): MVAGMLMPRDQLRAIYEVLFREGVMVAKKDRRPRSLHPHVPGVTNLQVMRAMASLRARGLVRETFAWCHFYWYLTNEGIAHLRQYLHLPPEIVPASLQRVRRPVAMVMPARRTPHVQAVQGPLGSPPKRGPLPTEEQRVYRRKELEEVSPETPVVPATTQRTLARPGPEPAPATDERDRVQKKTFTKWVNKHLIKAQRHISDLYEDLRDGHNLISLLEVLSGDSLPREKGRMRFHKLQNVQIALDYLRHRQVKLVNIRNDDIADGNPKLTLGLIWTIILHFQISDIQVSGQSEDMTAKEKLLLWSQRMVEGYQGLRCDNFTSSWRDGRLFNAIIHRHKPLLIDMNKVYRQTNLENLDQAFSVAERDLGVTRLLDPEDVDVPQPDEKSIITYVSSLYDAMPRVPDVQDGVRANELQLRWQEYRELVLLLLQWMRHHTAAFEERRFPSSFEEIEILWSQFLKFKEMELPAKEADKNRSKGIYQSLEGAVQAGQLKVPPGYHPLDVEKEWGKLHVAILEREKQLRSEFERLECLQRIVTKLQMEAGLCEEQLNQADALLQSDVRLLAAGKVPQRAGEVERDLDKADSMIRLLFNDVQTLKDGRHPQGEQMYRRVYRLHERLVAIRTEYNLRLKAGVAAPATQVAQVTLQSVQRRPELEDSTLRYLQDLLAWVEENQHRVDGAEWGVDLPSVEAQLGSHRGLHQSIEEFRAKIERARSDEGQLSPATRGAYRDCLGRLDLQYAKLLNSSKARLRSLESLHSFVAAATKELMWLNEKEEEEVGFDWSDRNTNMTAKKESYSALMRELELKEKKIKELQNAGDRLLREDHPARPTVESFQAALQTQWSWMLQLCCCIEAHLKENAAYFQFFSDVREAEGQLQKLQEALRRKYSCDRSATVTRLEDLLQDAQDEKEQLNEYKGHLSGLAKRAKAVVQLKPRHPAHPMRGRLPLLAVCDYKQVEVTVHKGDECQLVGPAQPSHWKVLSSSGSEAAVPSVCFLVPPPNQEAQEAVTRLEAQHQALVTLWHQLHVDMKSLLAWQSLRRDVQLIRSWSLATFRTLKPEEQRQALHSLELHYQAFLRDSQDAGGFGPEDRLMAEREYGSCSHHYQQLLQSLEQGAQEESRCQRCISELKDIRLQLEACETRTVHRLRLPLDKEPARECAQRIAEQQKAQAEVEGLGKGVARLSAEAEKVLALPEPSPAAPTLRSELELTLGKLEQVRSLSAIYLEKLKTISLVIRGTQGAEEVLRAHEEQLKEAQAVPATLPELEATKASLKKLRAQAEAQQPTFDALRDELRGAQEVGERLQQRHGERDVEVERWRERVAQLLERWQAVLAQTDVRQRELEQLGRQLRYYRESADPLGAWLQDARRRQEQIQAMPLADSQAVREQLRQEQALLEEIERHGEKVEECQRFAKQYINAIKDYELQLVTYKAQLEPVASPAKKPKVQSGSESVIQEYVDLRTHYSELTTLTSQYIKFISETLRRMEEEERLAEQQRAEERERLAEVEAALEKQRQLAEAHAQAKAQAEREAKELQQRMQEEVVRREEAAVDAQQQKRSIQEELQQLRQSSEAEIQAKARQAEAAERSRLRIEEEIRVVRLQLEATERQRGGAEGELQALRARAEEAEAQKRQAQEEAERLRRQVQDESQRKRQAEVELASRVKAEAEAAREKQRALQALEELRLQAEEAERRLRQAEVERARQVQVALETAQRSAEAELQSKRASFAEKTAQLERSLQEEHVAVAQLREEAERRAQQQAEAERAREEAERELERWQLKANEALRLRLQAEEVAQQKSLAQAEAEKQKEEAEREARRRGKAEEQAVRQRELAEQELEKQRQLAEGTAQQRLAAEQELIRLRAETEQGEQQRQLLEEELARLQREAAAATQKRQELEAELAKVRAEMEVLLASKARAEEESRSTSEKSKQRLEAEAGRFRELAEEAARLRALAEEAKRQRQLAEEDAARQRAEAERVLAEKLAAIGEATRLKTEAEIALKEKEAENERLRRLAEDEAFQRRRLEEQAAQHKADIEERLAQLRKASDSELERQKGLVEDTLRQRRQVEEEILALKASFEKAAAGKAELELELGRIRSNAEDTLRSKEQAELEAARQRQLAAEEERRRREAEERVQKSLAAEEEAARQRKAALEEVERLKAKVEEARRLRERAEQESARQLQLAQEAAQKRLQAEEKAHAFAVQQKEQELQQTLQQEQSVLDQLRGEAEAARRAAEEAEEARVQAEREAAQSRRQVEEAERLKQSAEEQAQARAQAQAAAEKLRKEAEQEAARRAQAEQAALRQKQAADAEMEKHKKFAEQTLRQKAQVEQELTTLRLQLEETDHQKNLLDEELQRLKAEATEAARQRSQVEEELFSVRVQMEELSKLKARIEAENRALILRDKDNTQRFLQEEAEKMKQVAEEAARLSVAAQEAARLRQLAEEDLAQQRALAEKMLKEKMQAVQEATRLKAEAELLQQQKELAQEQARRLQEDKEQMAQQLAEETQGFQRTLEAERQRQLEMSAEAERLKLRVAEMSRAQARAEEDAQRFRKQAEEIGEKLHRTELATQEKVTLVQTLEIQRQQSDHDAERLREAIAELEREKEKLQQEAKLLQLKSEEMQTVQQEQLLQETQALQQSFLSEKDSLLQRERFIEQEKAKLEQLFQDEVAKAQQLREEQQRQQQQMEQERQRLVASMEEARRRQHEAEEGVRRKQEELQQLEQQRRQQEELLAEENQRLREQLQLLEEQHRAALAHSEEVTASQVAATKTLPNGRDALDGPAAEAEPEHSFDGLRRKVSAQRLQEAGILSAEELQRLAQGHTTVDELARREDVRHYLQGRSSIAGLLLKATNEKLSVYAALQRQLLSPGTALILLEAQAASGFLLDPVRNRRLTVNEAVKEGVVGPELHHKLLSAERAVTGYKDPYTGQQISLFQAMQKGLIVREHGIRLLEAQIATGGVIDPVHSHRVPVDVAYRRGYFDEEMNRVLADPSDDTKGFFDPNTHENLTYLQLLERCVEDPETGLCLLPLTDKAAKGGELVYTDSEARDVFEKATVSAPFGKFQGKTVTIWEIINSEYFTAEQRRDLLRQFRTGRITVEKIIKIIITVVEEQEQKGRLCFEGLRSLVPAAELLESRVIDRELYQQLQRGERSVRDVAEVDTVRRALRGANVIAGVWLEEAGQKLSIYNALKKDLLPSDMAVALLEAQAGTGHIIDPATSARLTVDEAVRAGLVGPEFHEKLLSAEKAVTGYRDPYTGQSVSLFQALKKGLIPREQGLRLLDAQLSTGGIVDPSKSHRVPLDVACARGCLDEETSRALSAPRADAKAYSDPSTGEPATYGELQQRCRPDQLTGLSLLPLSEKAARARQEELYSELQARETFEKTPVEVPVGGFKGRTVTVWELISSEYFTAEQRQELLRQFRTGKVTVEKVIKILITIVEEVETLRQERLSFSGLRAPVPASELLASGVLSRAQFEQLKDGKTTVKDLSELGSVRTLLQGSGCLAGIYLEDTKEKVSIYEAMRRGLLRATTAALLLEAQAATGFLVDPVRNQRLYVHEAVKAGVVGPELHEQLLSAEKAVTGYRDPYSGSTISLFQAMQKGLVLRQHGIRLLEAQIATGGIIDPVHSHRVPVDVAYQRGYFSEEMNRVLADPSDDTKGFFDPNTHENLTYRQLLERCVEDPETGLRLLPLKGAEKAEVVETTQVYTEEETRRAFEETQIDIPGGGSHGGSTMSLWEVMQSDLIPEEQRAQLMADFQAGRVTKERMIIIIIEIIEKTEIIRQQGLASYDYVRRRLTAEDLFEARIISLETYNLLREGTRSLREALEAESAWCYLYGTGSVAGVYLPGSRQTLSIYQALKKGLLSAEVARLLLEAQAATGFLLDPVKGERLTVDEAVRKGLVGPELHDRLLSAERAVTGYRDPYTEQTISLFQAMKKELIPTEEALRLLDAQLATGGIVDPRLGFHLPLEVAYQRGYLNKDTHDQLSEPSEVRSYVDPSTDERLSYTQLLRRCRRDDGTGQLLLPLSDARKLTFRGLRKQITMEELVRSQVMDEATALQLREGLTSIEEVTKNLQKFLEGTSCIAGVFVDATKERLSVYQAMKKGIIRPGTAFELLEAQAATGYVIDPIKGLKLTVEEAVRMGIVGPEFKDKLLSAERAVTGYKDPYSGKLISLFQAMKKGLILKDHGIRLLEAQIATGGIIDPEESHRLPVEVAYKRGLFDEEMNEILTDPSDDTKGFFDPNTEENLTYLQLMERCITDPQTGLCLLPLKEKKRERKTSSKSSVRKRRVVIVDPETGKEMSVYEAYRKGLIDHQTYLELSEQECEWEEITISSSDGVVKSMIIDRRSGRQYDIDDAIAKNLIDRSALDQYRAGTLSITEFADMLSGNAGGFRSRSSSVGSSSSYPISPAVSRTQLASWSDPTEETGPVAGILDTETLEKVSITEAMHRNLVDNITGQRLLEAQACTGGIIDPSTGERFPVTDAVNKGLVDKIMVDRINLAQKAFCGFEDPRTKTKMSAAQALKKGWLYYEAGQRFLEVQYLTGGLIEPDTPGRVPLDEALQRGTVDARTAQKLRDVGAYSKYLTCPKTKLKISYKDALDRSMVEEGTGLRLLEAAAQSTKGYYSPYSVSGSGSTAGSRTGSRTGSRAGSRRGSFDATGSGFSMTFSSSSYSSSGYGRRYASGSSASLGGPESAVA
binder,measurement,setting,value
B1,specificity (ratio of clone 27/unrelated clone mean fluorescence),[1],141 ratio
same,specificity over normal ductal cells,[2],112 fold
